Measured values published in publication PMC5575113 (2017).

Experiments:
GroEL = GroEL (E. coli, UniProt P0A6F5 1-548); assay: MST
[1] = biological target: GroEL^SR (GroEL R452A/E461A/S463A/V464A) (E. coli, UniProt P0A6F5 1-548, R452A | E461A | S463A | V464A); assay: MST

Row | Binder | Kd (GroEL) [nM] | Kd [1] [nM]
1 | GroES^7I25D_(1,4,7) (other, DyLight 650 NHS ester on amines (for MST)) MNIRPLHDRVIVKRKEVETKSAGGDVLTGSAAAKSTRGEVLAVGNGRILENGEVKPLDVKVGDIVIFNDGYGVKSEKIDNEEVLIMSESDILAIVEAMNIRPLHDRVIVKRKEVETKSAGGIVLTGSAAAKSTRGEVLAVGNGRILENGEVKPLDVKVGDIVIFNDGYGVKSEKIDNEEVLIMSESDILAIVEAMNIRPLHDRVIVKRKEVETKSAGGIVLTGSAAAKSTRGEVLAVGNGRILENGEVKPLDVKVGDIVIFNDGYGVKSEKIDNEEVLIMSESDILAIVEAMNIRPLHDRVIVKRKEVETKSAGGDVLTGSAAAKSTRGEVLAVGNGRILENGEVKPLDVKVGDIVIFNDGYGVKSEKIDNEEVLIMSESDILAIVEAMNIRPLHDRVIVKRKEVETKSAGGIVLTGSAAAKSTRGEVLAVGNGRILENGEVKPLDVKVGDIVIFNDGYGVKSEKIDNEEVLIMSESDILAIVEAMNIRPLHDRVIVKRKEVETKSAGGIVLTGSAAAKSTRGEVLAVGNGRILENGEVKPLDVKVGDIVIFNDGYGVKSEKIDNEEVLIMSESDILAIVEAMNIRPLHDRVIVKRKEVETKSAGGDVLTGSAAAKSTRGEVLAVGNGRILENGEVKPLDVKVGDIVIFNDGYGVKSEKIDNEEVLIMSESDILAIVEA | 40 | –
2 | GroES^7I25A1 (other, DyLight 650 NHS ester on amines (for MST)) MNIRPLHDRVIVKRKEVETKSAGGAVLTGSAAAKSTRGEVLAVGNGRILENGEVKPLDVKVGDIVIFNDGYGVKSEKIDNEEVLIMSESDILAIVEAMNIRPLHDRVIVKRKEVETKSAGGIVLTGSAAAKSTRGEVLAVGNGRILENGEVKPLDVKVGDIVIFNDGYGVKSEKIDNEEVLIMSESDILAIVEAMNIRPLHDRVIVKRKEVETKSAGGIVLTGSAAAKSTRGEVLAVGNGRILENGEVKPLDVKVGDIVIFNDGYGVKSEKIDNEEVLIMSESDILAIVEAMNIRPLHDRVIVKRKEVETKSAGGIVLTGSAAAKSTRGEVLAVGNGRILENGEVKPLDVKVGDIVIFNDGYGVKSEKIDNEEVLIMSESDILAIVEAMNIRPLHDRVIVKRKEVETKSAGGIVLTGSAAAKSTRGEVLAVGNGRILENGEVKPLDVKVGDIVIFNDGYGVKSEKIDNEEVLIMSESDILAIVEAMNIRPLHDRVIVKRKEVETKSAGGIVLTGSAAAKSTRGEVLAVGNGRILENGEVKPLDVKVGDIVIFNDGYGVKSEKIDNEEVLIMSESDILAIVEAMNIRPLHDRVIVKRKEVETKSAGGIVLTGSAAAKSTRGEVLAVGNGRILENGEVKPLDVKVGDIVIFNDGYGVKSEKIDNEEVLIMSESDILAIVEA | 4.6 | –
3 | GroES^7I25D1,3 (other, DyLight 650 NHS ester on amines (for MST)) MNIRPLHDRVIVKRKEVETKSAGGDVLTGSAAAKSTRGEVLAVGNGRILENGEVKPLDVKVGDIVIFNDGYGVKSEKIDNEEVLIMSESDILAIVEAMNIRPLHDRVIVKRKEVETKSAGGIVLTGSAAAKSTRGEVLAVGNGRILENGEVKPLDVKVGDIVIFNDGYGVKSEKIDNEEVLIMSESDILAIVEAMNIRPLHDRVIVKRKEVETKSAGGDVLTGSAAAKSTRGEVLAVGNGRILENGEVKPLDVKVGDIVIFNDGYGVKSEKIDNEEVLIMSESDILAIVEAMNIRPLHDRVIVKRKEVETKSAGGIVLTGSAAAKSTRGEVLAVGNGRILENGEVKPLDVKVGDIVIFNDGYGVKSEKIDNEEVLIMSESDILAIVEAMNIRPLHDRVIVKRKEVETKSAGGIVLTGSAAAKSTRGEVLAVGNGRILENGEVKPLDVKVGDIVIFNDGYGVKSEKIDNEEVLIMSESDILAIVEAMNIRPLHDRVIVKRKEVETKSAGGIVLTGSAAAKSTRGEVLAVGNGRILENGEVKPLDVKVGDIVIFNDGYGVKSEKIDNEEVLIMSESDILAIVEAMNIRPLHDRVIVKRKEVETKSAGGIVLTGSAAAKSTRGEVLAVGNGRILENGEVKPLDVKVGDIVIFNDGYGVKSEKIDNEEVLIMSESDILAIVEA | 13.3 | 71.9
4 | GroES^7I25A1,2 (other, DyLight 650 NHS ester on amines (for MST)) MNIRPLHDRVIVKRKEVETKSAGGAVLTGSAAAKSTRGEVLAVGNGRILENGEVKPLDVKVGDIVIFNDGYGVKSEKIDNEEVLIMSESDILAIVEAMNIRPLHDRVIVKRKEVETKSAGGAVLTGSAAAKSTRGEVLAVGNGRILENGEVKPLDVKVGDIVIFNDGYGVKSEKIDNEEVLIMSESDILAIVEAMNIRPLHDRVIVKRKEVETKSAGGIVLTGSAAAKSTRGEVLAVGNGRILENGEVKPLDVKVGDIVIFNDGYGVKSEKIDNEEVLIMSESDILAIVEAMNIRPLHDRVIVKRKEVETKSAGGIVLTGSAAAKSTRGEVLAVGNGRILENGEVKPLDVKVGDIVIFNDGYGVKSEKIDNEEVLIMSESDILAIVEAMNIRPLHDRVIVKRKEVETKSAGGIVLTGSAAAKSTRGEVLAVGNGRILENGEVKPLDVKVGDIVIFNDGYGVKSEKIDNEEVLIMSESDILAIVEAMNIRPLHDRVIVKRKEVETKSAGGIVLTGSAAAKSTRGEVLAVGNGRILENGEVKPLDVKVGDIVIFNDGYGVKSEKIDNEEVLIMSESDILAIVEAMNIRPLHDRVIVKRKEVETKSAGGIVLTGSAAAKSTRGEVLAVGNGRILENGEVKPLDVKVGDIVIFNDGYGVKSEKIDNEEVLIMSESDILAIVEA | 8.97 | 35
5 | GroES^7I25A_(1,4,7) (other, DyLight 650 NHS ester on amines (for MST)) MNIRPLHDRVIVKRKEVETKSAGGAVLTGSAAAKSTRGEVLAVGNGRILENGEVKPLDVKVGDIVIFNDGYGVKSEKIDNEEVLIMSESDILAIVEAMNIRPLHDRVIVKRKEVETKSAGGIVLTGSAAAKSTRGEVLAVGNGRILENGEVKPLDVKVGDIVIFNDGYGVKSEKIDNEEVLIMSESDILAIVEAMNIRPLHDRVIVKRKEVETKSAGGIVLTGSAAAKSTRGEVLAVGNGRILENGEVKPLDVKVGDIVIFNDGYGVKSEKIDNEEVLIMSESDILAIVEAMNIRPLHDRVIVKRKEVETKSAGGAVLTGSAAAKSTRGEVLAVGNGRILENGEVKPLDVKVGDIVIFNDGYGVKSEKIDNEEVLIMSESDILAIVEAMNIRPLHDRVIVKRKEVETKSAGGIVLTGSAAAKSTRGEVLAVGNGRILENGEVKPLDVKVGDIVIFNDGYGVKSEKIDNEEVLIMSESDILAIVEAMNIRPLHDRVIVKRKEVETKSAGGIVLTGSAAAKSTRGEVLAVGNGRILENGEVKPLDVKVGDIVIFNDGYGVKSEKIDNEEVLIMSESDILAIVEAMNIRPLHDRVIVKRKEVETKSAGGAVLTGSAAAKSTRGEVLAVGNGRILENGEVKPLDVKVGDIVIFNDGYGVKSEKIDNEEVLIMSESDILAIVEA | 77.2 | –
6 | GroES^7I25D1,4 (other, DyLight 650 NHS ester on amines (for MST)) MNIRPLHDRVIVKRKEVETKSAGGDVLTGSAAAKSTRGEVLAVGNGRILENGEVKPLDVKVGDIVIFNDGYGVKSEKIDNEEVLIMSESDILAIVEAMNIRPLHDRVIVKRKEVETKSAGGIVLTGSAAAKSTRGEVLAVGNGRILENGEVKPLDVKVGDIVIFNDGYGVKSEKIDNEEVLIMSESDILAIVEAMNIRPLHDRVIVKRKEVETKSAGGIVLTGSAAAKSTRGEVLAVGNGRILENGEVKPLDVKVGDIVIFNDGYGVKSEKIDNEEVLIMSESDILAIVEAMNIRPLHDRVIVKRKEVETKSAGGDVLTGSAAAKSTRGEVLAVGNGRILENGEVKPLDVKVGDIVIFNDGYGVKSEKIDNEEVLIMSESDILAIVEAMNIRPLHDRVIVKRKEVETKSAGGIVLTGSAAAKSTRGEVLAVGNGRILENGEVKPLDVKVGDIVIFNDGYGVKSEKIDNEEVLIMSESDILAIVEAMNIRPLHDRVIVKRKEVETKSAGGIVLTGSAAAKSTRGEVLAVGNGRILENGEVKPLDVKVGDIVIFNDGYGVKSEKIDNEEVLIMSESDILAIVEAMNIRPLHDRVIVKRKEVETKSAGGIVLTGSAAAKSTRGEVLAVGNGRILENGEVKPLDVKVGDIVIFNDGYGVKSEKIDNEEVLIMSESDILAIVEA | 9.58 | 73.1
7 | GroES^7I25A1,3 (other, DyLight 650 NHS ester on amines (for MST)) MNIRPLHDRVIVKRKEVETKSAGGAVLTGSAAAKSTRGEVLAVGNGRILENGEVKPLDVKVGDIVIFNDGYGVKSEKIDNEEVLIMSESDILAIVEAMNIRPLHDRVIVKRKEVETKSAGGIVLTGSAAAKSTRGEVLAVGNGRILENGEVKPLDVKVGDIVIFNDGYGVKSEKIDNEEVLIMSESDILAIVEAMNIRPLHDRVIVKRKEVETKSAGGAVLTGSAAAKSTRGEVLAVGNGRILENGEVKPLDVKVGDIVIFNDGYGVKSEKIDNEEVLIMSESDILAIVEAMNIRPLHDRVIVKRKEVETKSAGGIVLTGSAAAKSTRGEVLAVGNGRILENGEVKPLDVKVGDIVIFNDGYGVKSEKIDNEEVLIMSESDILAIVEAMNIRPLHDRVIVKRKEVETKSAGGIVLTGSAAAKSTRGEVLAVGNGRILENGEVKPLDVKVGDIVIFNDGYGVKSEKIDNEEVLIMSESDILAIVEAMNIRPLHDRVIVKRKEVETKSAGGIVLTGSAAAKSTRGEVLAVGNGRILENGEVKPLDVKVGDIVIFNDGYGVKSEKIDNEEVLIMSESDILAIVEAMNIRPLHDRVIVKRKEVETKSAGGIVLTGSAAAKSTRGEVLAVGNGRILENGEVKPLDVKVGDIVIFNDGYGVKSEKIDNEEVLIMSESDILAIVEA | 10 | 39.7
8 | GroES^7I25D1 (other, DyLight 650 NHS ester on amines (for MST)) MNIRPLHDRVIVKRKEVETKSAGGDVLTGSAAAKSTRGEVLAVGNGRILENGEVKPLDVKVGDIVIFNDGYGVKSEKIDNEEVLIMSESDILAIVEAMNIRPLHDRVIVKRKEVETKSAGGIVLTGSAAAKSTRGEVLAVGNGRILENGEVKPLDVKVGDIVIFNDGYGVKSEKIDNEEVLIMSESDILAIVEAMNIRPLHDRVIVKRKEVETKSAGGIVLTGSAAAKSTRGEVLAVGNGRILENGEVKPLDVKVGDIVIFNDGYGVKSEKIDNEEVLIMSESDILAIVEAMNIRPLHDRVIVKRKEVETKSAGGIVLTGSAAAKSTRGEVLAVGNGRILENGEVKPLDVKVGDIVIFNDGYGVKSEKIDNEEVLIMSESDILAIVEAMNIRPLHDRVIVKRKEVETKSAGGIVLTGSAAAKSTRGEVLAVGNGRILENGEVKPLDVKVGDIVIFNDGYGVKSEKIDNEEVLIMSESDILAIVEAMNIRPLHDRVIVKRKEVETKSAGGIVLTGSAAAKSTRGEVLAVGNGRILENGEVKPLDVKVGDIVIFNDGYGVKSEKIDNEEVLIMSESDILAIVEAMNIRPLHDRVIVKRKEVETKSAGGIVLTGSAAAKSTRGEVLAVGNGRILENGEVKPLDVKVGDIVIFNDGYGVKSEKIDNEEVLIMSESDILAIVEA | 4.07 | 25.6
